The record followed here is PMC5897525 (Nature Communications, 2018).

For the test, the target named is T1, natural Fel d 1 (Felis catus, UniProt P30438;P30440).
T1 construct: Fel d 1 Chain 1, cat, of the natural Fel d 1 heterodimer; Fel d 1 Chain 2, cat, of the natural Fel d 1 heterodimer; also called nFel d 1; source: bought: Indoor Biotech, Catalog #LTN-FD-1
The experiment in a line: SPR; Biacore T200; REGN1909 (94-163 RU) captured on a goat anti-human Fcγ coupled surface; nFel d 1 or rFel d 1.mmh injected in 2-fold dilutions; 10 mM HEPES, 150 mM NaCl, 3 mM MgCl2, 3 mM CaCl2, 0.05% P20, pH 7.4; 1:1 binding model with mass transport limitation. Particulars: both partners purified. On the technique in general: SPR reads the build-up and loss of mass on a sensor chip optically.

B1: REGN1909 (antibody, V domains shown)
VH: EVQLVESGGGLVQPGGSLRLSCAASGFTFSSYAMSWVRQAPGKGLEWVSAISGRGYNADYADSVKGRFTISRDNSKNTLYLQMNSLRAEDTAVYYCAKLEYFDYWGQGTLVTVSS
VL: DIQMTQSPSTLSASVGDRVTITCRASQSISSWLAWYQQKPGKAPKLLIYKASSLESGVPSRFSGSGSGTDFTLTISSLRPEDFATYYCQQYNSYPLTFGGGTKVEIK
For B1, the binding result was “binds”.
